Data taken from doi:10.1101/2025.10.29.685329 (bioRxiv, 2025).
No end group written: not given here.

What was measured:
GST-PGK1 = target: T1, GST-PGK1 (UniProt P00558 1-417); test: co-sedimentation
T1 sequence (looked up): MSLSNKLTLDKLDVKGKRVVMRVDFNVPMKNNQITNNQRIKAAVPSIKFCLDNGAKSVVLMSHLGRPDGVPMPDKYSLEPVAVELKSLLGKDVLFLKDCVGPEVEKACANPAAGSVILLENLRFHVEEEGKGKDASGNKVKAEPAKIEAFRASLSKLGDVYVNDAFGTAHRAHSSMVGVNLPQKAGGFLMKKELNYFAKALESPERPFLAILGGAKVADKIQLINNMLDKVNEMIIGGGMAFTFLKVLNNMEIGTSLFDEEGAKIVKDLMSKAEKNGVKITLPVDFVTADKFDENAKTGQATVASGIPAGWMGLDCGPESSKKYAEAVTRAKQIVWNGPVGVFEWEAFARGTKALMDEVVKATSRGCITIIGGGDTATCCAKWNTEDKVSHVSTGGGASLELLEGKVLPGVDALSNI

His-PGK1 = target: T2, His-PGK1 (UniProt P00558 1-417); test: pull-down
T2 sequence (looked up): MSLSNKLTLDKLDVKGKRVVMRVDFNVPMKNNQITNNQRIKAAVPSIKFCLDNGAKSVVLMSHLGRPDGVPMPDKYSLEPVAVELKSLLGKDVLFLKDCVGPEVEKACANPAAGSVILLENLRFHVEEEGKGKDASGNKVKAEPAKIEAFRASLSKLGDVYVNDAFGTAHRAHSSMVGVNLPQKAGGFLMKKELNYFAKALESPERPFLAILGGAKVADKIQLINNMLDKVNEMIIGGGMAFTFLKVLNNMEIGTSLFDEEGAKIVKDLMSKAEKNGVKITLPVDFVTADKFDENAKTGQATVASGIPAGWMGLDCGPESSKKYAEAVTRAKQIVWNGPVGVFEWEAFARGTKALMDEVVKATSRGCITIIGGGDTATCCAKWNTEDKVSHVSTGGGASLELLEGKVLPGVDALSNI

B1: His-Tyr peptide (lipid-linked tyrosine-based motif) (peptide)
peptide: HHHHHHSAFSNLFGGEPLSYTRFSL
modifications: not fully specified
Question: Does B1 bind (GST-PGK1)?
Answer: binds

B2: GST-TfR1-61 (TfR cyto), wild type (domain or fragment, UniProt P02786 1-61, looked up)
chain: MMDQARSAFSNLFGGEPLSYTRFSLARQVDGDNSHVEMKLAVDEEENADNNTKANVTKPKR
Question: Does B2 bind (His-PGK1)?
Answer: binds
